# Values quoted from earlier work in PMC13341169.
# Where two headings read alike, the source gives them in different places.
# Legend:
# [1] = target: PKA C-subunit (Homo sapiens) (UniProt P17612)
# [2] = target: PKA C-subunit (Homo sapiens) (UniProt P17612); remark: listed apart in the source
Kd [1],Kd [2],Substance
7.1 nM,–,PKIβ (from UniProt Q9C010)
–,0.4 nM,PKIγ (from UniProt Q9Y2B9)
